The test concerns the target T1, C-terminally His-tagged human ECRG4(32–148) (human, UniProt Q9H1Z8 32-148).
T1 chain: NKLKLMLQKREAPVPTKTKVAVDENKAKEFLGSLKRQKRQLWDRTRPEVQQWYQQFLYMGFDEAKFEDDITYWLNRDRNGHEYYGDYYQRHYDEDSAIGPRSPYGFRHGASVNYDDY
The test is described as follows: SPR. (SPR reads the build-up and loss of mass on a sensor chip optically.)

The source of these data is article PMC5840397 (2018).

The Kd is the constant that tells how readily two partners part at equilibrium.

B1: 2 × CTLD–Fc (two human LOX-1 CTLDs in tandem, Fc-fused) (Fc fusion)
chain: not shown
As to B1, binding was put at a Kd of 14.2 nM.
